Test results taken from paper PMC5642495, “Characterization of a novel androgen receptor (AR) coregulator RIPK1 and related chemicals that suppress AR-mediated prostate cancer growth via peptide and chemical screening” (Oncotarget, 2017).
Substitutions are numbered along the chain they refer to. Ends that are not written are not given here.

Experiments:
W741L-AR = target: T1, W741L-AR (Homo sapiens, UniProt P10275, W742L); assay: mammalian two-hybrid (MM2H) assay, peptide interaction with W741L-AR; type: cell-based; conditions: PC-3 cells, Gal-4 = 1; for W741L-AR CDX, peptide-AR interaction in MM2H assay: CDX = 10 µM
T1 construct: expressed in transfected cells; host or cells: PC-3
T1 sequence (P10275 1-920 W742L): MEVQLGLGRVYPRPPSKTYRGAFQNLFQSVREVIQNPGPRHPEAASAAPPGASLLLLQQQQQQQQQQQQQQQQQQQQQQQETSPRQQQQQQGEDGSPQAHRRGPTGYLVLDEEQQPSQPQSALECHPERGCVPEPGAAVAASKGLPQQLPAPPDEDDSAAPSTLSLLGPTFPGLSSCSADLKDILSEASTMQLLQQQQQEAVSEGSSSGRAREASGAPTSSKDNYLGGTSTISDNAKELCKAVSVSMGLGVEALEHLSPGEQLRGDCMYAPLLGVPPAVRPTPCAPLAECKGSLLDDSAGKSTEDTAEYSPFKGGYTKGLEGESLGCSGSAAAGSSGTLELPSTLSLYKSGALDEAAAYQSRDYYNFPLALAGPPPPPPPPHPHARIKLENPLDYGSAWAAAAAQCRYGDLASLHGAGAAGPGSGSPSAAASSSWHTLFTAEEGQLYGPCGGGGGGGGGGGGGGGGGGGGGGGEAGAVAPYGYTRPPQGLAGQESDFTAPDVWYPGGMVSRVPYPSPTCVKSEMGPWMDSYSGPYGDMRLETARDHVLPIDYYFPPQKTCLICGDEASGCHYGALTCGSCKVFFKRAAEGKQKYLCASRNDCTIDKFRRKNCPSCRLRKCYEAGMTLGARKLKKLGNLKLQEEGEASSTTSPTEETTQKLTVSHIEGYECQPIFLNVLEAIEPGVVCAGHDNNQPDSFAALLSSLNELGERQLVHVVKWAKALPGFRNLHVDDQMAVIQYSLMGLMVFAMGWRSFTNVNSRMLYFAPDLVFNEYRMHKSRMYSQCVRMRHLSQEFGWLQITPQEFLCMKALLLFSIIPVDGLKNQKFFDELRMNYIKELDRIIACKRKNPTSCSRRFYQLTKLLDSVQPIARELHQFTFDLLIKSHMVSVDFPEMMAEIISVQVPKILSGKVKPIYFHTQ
Source text: (§1) Using the phage display technique, we observed enrichment of FxxFY motif-containing peptides in CDX-W741L AR LBD screening. Peptide-AR interactions were further validated with the mammalian two-hybrid assay. […] The majority of these peptides additionally interacted with W741L-AR in the presence of bicalutamide. Protein database searches led to the identification of receptor-interacting protein kinase-1 (RIPK1) as a FxxFY motif-containing protein (^285FRPFY^289). RIPK1 is a kinase that plays a crucial role in inflammation and cell death. We hypothesized that RIPK1 is an AR-interacting candidate protein and the FxxFY motif is involved in mediating interactions with AR. To examine this theory, we tested the short FxxFY-containing peptide in a mammalian two-hybrid assay. […] In interacting domain mapping, the FxxFY motif of RIPK1 influenced binding to AR in the GST pull-down assay, mediating AR interactions predominantly through DBD-LBD, as depicted in Figure 1B. […] RIPK1 contains an amino-terminal kinase domain, an intermediate domain and a carboxy-terminal death domain [17]. […] We further examined tissue expression of RIPK1 in the prostate gland via immunohistochemical staining. As shown in Figure 1E and 1F, RIPK1 was enriched in benign prostate hyperplasia and non-tumor areas, but not the tumor area. In view of the collective data, we propose that RIPK1 is a bona fide AR coregulator.
(§2) The assay procedures were performed as described previously. The PC-3 cell line was used for the mammalian two-hybrid and reporter gene assays.

wt-AR = target: T2, wt-AR (Homo sapiens, UniProt P10275); assay: mammalian two-hybrid (MM2H) assay, peptide interaction with wt-AR; type: cell-based; conditions: PC-3 cells, Gal-4 = 1; for wt-AR DHT, peptide-AR interaction in MM2H assay: DHT = 10 nM
T2 construct: expressed in transfected cells; host or cells: PC-3
T2 sequence (P10275 1-920): T1 sequence (P10275 1-920 W742L) with L742W
Source text: as §1, §2

Substance	W741L-AR CDX, peptide-AR interaction in MM2H assay (W741L-AR)	W741L-AR Ethanol, peptide-AR interaction in MM2H assay (W741L-AR)	wt-AR DHT, peptide-AR interaction in MM2H assay (wt-AR)	wt-AR Ethanol, peptide-AR interaction in MM2H assay (wt-AR)
#3-18: positive control peptide NTNA-FSRLF-YPS (NTNAFSRLFYPS; also: fused to Gal4 DNA-binding domain, end not given here) [reference compound]	128	9	590	10
C1-FY: phage display screened peptide SYT-FNQFY-YSTA (SYTFNQFYYSTA; also: fused to Gal4 DNA-binding domain, end not given here)	511	8	680	19
C4-FY: phage display screened peptide SPL-FSSFY-HART (SPLFSSFYHART; also: fused to Gal4 DNA-binding domain, end not given here)	114	1	340	4
C8-FY: phage display screened peptide GD-FKSFY-LATTW (GDFKSFYLATTW; also: fused to Gal4 DNA-binding domain, end not given here)	86	2	484	17
C315-FY: phage display screened peptide APSLNR-FATFY-H (APSLNRFATFYH; also: fused to Gal4 DNA-binding domain, end not given here)	2	1	6	1
C411-FY: phage display screened peptide NDTPVK-FAHFY-H (NDTPVKFAHFYH; also: fused to Gal4 DNA-binding domain, end not given here)	3	2	3	7
C412-FY: phage display screened peptide APSDTY-FQRFY-R (APSDTYFQRFYR; also: fused to Gal4 DNA-binding domain, end not given here)	2	1	6	12
C414-FY: phage display screened peptide NPSSM-FEKFY-LR (NPSSMFEKFYLR; also: fused to Gal4 DNA-binding domain, end not given here)	532	2	2,653	10
CA9-FY: phage display screened peptide SL-FTSFY-TGSGS (SLFTSFYTGSGS; also: fused to Gal4 DNA-binding domain, end not given here)	190	5	1,517	20
CA-10-FY: phage display screened peptide EHSM-FHSFY-VQG (EHSMFHSFYVQG; also: fused to Gal4 DNA-binding domain, end not given here)	14	4	277	12
CON-1: negative control peptide MYKP-HNHHQ-TSS (MYKPHNHHQTSS; also: fused to Gal4 DNA-binding domain (not in chain)) [reference compound]	1	1	1	1
RIP-p: short peptide of novel AR coregulator candidate RIPK1, GIEEK-FRPFY-LSQLE (GIEEKFRPFYLSQLE; also: fused to Gal4 DNA-binding domain (not in chain))	554	12	159	2
